B1: 1.33.1-1 (antibody, human IgG1, kappa)
heavy: QVQLVQSGAEVKKPGASVRVSCKASGYNIRDYFIHWWRQAPGQGLQWVGWINPKTGQPNNPRQFQGRVTLTRHASWDFDTFSFYMDLKALRSDDTATYFCARQRSDYWDFDVWGSGTQVTVSSASTKGPSVFPLAPSSKSTSGGTAALGCLVKDYFPEPVTVSWNSGALTSGVHTFPAVLQSSGLYSLSSVVTVPSSSLGTQTYICNVNHKPSNTKVDKKVEPKSCDKTHTCPPCPAPELLAGPDVFLFPPKPKDTLMISRTPEVTCVVVDVSHEDPEVKFNWYVDGVEVHNAKTKPREEQYNSTYRVVSVLTVLHQDWLNGKEYKCKVSNKALPLPEEKTISKAKGQPREPQVYTLPPSREEMTKNQVSLTCLVKGFYPSDIAVEWESNGQPENNYKTTPPVLDSDGSFFLYSKLTVDKSRWQQGNVFSCSVLHEALHSHYTQKSLSLSPGK
light: DIQMTQSPSSLSASVGDTVTITCQANGYLNWYQQRRGKAPKLLIYDGSKLERGVPSRFSGRRWGQEYNLTINNLQPEDIATYFCQVYEFVVPGTRLDLKRTVAAPSVFIFPPSDEQLKSGTASVVCLLNNFYPREAKVQWKVDNALQSGNSQESVTEQDSKDSTYSLSSTLTLSKADYEKHKVYACEVTHQGLSSPVTKSFNRGEC
B2: 1.33.34-1 (antibody, human IgG1, kappa)
heavy: B1 heavy
light: B1 light with K49N, N68T, N72S, N73S, V91T, L98I
B3: 1.33.31-1 (antibody, human IgG1, kappa)
heavy: B1 heavy
light: B1 light with N68T, N72S, N73S, R95N
B4: 1.34.1-1 (antibody, human IgG1, kappa)
heavy: B1 heavy with T97V, S105T
light: B1 light
B5: 1.34.31-1 (antibody, human IgG1, kappa)
heavy: B1 heavy with T97V, S105T
light: B1 light with N68T, N72S, N73S, R95N
B6: 1.34.32-1 (antibody, human IgG1, kappa)
heavy: B1 heavy with T97V, S105T
light: B1 light with N68T, N72S, N73S, V91T
B7: 1.33.33-1 (antibody, human IgG1, kappa)
heavy: B1 heavy
light: B1 light with K49N, N68T, N72S, N73S, R95N, L98I
B8: 1.33.32-1 (antibody, human IgG1, kappa)
heavy: B1 heavy
light: B1 light with N68T, N72S, N73S, V91T
B9: 1.34.33-1 (antibody, human IgG1, kappa)
heavy: B1 heavy with T97V, S105T
light: B1 light with K49N, N68T, N72S, N73S, R95N, L98I

Changes are numbered by the printed parent chain.

The target of one experiment is BSA (UniProt P02769 25-607). Description: single-point ELISA, BSA control. Background: In an ELISA, binding on a coated surface is turned into a signal by an enzyme label.
As for B1, the “ELISA A450” value came out at 0.06 A450.
Take B2: the “ELISA A450” value was determined as 0.06 A450.
The same measure, in the same setting: with B3 the figure was 0.07 A450; with B4, 0.07 A450; with B5, 0.06 A450.
Same read-out and setting: with B6 the figure was 0.06 A450.
On the same count and under the same terms, with B7 the figure was 0.07 A450; with B8, 0.07 A450.
For the molecule B9, the “ELISA A450” value came to 0.06 A450.

The target in another experiment is gp120 SHIV SF162 P3 (SHIV SF162 P3). Description: single-point ELISA at EC50 conc. of A-1.
As to B1, the “ELISA A450” value stood at 0.96 A450.
Same read-out and setting: with B2 the figure was 0.82 A450.
Still for that read-out and setting: with B3 the figure was 0.89 A450; with B4, 0.79 A450; with B5, 0.77 A450.
On the same count and under the same terms, to B6 belongs 0.69 A450.
On to B7, for which the “ELISA A450” value is 0.97 A450.
Same read-out and setting: to B8 belongs 0.98 A450; to B9, 0.82 A450.

The next experiment has as its target gp120 CAAN (HIV (CAAN)). Description: single-point ELISA at EC50 conc. of A-1.
In the case of B1, the “ELISA A450” value was 0.98 A450.
Still for that read-out and setting: with B2 the figure was 0.95 A450; with B3, 1.18 A450.
The same measure, in the same setting: with B4 the figure was 0.9 A450.
On the same count and under the same terms, with B5 the figure was 0.92 A450; with B6, 0.97 A450.
As for B7, the “ELISA A450” value is 1.06 A450.
As to B8, the “ELISA A450” value amounted to 1.13 A450.
Same read-out and setting: with B9 the figure was 1.04 A450.

A further experiment addresses gp120 Bal (HIV (Bal)). Description: single-point ELISA at EC50 conc. of A-1.
On to B1, for which the “ELISA A450” value came to 0.88 A450.
Same read-out and setting: to B2 belongs 0.95 A450; to B3, 0.92 A450; to B4, 0.83 A450.
Same read-out and setting: to B5 belongs 0.91 A450; to B6, 0.93 A450; to B7, 1.09 A450.
Consider B8, for which the “ELISA A450” value is 0.98 A450.
With B9, the “ELISA A450” value was found to be 1.1 A450.

The record behind these values is US20240034774A1 (Gilead, published 2024).
